Results on one protein are retold here after PMC5706989 (Molecular Biology of the Cell, 2017).

Series [1] deals with the molecule itself. The series is described as follows: two-colour scanning fluorescence.
Series [2] deals with the molecule itself. The series is described as follows: one-colour scanning fluorescence correlation spectroscopy.
Series [3] concerns the molecule itself. The series is described as follows: two-colour scanning fluorescence. This is another data set of the same source.
Series [4] deals with the molecule itself. The series is described as follows: two-colour scanning fluorescence. The source holds these as a separate data set.
Series [5] deals with the molecule itself. The series is described as follows: two-colour scanning fluorescence. The source holds these as a separate data set.
Series [6] concerns the molecule itself. Kind of series: one-colour scanning fluorescence correlation spectroscopy. This is another data set of the same source.

B1: APLP1–yellow fluorescent protein (APLP1-YFP) (natural protein, UniProt P51693 39-650, looked up)
chain: SLAGGSPGAAEAPGSAQVAGLCGRLTLHRDLRTGRWEPDPQRSRRCLRDPQRVLEYCRQMYPELQIARVEQATQAIPMERWCGGSRSGSCAHPHHQVVPFRCLPGEFVSEALLVPEGCRFLHQERMDQCESSTRRHQEAQEACSSQGLILHGSGMLLPCGSDRFRGVEYVCCPPPGTPDPSGTAVGDPSTRSWPPGSRVEGAEDEEEEESFPQPVDDYFVEPPQAEEEEETVPPPSSHTLAVVGKVTPTPRPTDGVDIYFGMPGEISEHEGFLRAKMDLEERRMRQINEVMREWAMADNQSKNLPKADRQALNEHFQSILQTLEEQVSGERQRLVETHATRVIALINDQRRAALEGFLAALQADPPQAERVLLALRRYLRAEQKEQRHTLRHYQHVAAVDPEKAQQMRFQVHTHLQVIEERVNQSLGLLDQNPHLAQELRPQIQELLHSEHLGPSELEAPAPGGSSEDKGGLQPPDSKDDTPMTLPKGSTEQDAASPEKEKMNPLEQYERKVNASVPRGFPFHSSEIQRDELAPAGTGVSREAVSGLLIMGAGGGSLIVLSMLLLRRKKPYGAISHGVVEVDPMLTLEEQQLRELQRHGYENPTYRFLEERP
One may read the stoichiometry N as a count of units in the complex or per binding partner. Consider B1, for which the “stoichiometry N” value was 3 in series [1]; 2 in series [2]; 6 in series [3]; 21 in series [4]; 1.8 in series [5]; 1.9 in series [6].
